Results: publication PMC7246612, “The In Vitro Non-Tetramerizing ZapA^I83E Mutant Is Unable to Recruit ZapB to the Division Plane In Vivo in Escherichia coli” (International Journal of Molecular Sciences, 2020)

T1: mKO–FtsZ (filamenting temperature-sensitive Z fused to mKO) (Escherichia coli, UniProt P0A9A6 1-383)
T1 construct: filamenting temperature-sensitive Z (FtsZ), Escherichia coli; also called pSAV072; pSAV–mKO–FtsZ; source: E. coli TB28 ∆zapA or WT strain, expressed from plasmid pSAV072, in living cells; not shown: mKO, N-terminal, kept
T1 sequence (looked up): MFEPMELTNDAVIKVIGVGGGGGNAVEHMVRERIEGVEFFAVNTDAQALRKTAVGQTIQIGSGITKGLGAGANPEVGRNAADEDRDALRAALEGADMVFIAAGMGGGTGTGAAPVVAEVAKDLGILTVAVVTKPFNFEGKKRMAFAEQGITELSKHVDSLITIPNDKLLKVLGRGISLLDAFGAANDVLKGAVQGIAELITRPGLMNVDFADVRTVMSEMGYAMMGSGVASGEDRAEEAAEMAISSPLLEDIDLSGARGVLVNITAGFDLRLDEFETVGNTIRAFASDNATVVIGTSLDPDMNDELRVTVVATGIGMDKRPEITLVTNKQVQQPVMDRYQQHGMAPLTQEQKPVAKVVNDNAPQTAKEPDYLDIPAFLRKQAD

T2: mKO–PBP1a (inner membrane protein PBP1a fused to mKO) (UniProt P02918 1-850)
T2 construct: PBP1a, inner membrane protein; Negative control partner in the FRET assay; also called pBB004; pSAV–mKO–PBP1a; source: E. coli TB28 ∆zapA, expressed from plasmid pBB004, in living cells; not shown: mKO, N-terminal, kept
T2 sequence (looked up): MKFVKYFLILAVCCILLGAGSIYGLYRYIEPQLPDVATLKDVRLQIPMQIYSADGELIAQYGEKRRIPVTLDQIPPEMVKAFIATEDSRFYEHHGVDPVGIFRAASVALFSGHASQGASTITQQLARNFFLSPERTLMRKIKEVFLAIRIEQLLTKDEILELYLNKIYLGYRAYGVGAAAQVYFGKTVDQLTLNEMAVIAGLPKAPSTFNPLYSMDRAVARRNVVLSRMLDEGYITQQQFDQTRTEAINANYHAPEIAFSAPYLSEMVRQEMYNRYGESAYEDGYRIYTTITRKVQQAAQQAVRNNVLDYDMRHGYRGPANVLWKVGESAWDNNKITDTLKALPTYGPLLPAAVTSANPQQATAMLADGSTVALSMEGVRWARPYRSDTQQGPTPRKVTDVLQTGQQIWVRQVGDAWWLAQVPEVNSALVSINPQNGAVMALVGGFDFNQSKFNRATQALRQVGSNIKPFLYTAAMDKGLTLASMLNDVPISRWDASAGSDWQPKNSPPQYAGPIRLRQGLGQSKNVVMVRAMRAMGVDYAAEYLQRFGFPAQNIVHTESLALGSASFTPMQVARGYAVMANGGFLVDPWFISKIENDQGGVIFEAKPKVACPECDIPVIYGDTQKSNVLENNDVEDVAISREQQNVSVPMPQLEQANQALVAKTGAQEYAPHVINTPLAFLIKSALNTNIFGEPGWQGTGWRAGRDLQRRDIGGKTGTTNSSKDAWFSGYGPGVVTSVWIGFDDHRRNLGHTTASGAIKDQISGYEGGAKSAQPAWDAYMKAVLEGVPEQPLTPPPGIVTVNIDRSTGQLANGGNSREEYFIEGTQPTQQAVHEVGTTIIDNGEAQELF


Experiments:
mKO–FtsZ (filamenting …) = molecular target: T1, mKO–FtsZ (filamenting …); assay: FRET or BRET; in vivo FRET in E. coli TB28 ∆zapA cells; mKO fusion (donor) and mCh fusion (acceptor) expressed from plasmids; energy transfer efficiency (EfA) by spectral unmixing; conditions: partners not purified
[1] = molecular target: T2, mKO–PBP1a (inner membrane protein PBP1a …); assay: as above; conditions: partners not purified

| Binder | EfA (energy transfer efficiency) (mKO–FtsZ (filamenting …)) [%] | EfA (energy transfer efficiency) [1] [%] |
| --- | --- | --- |
| mCh–ZapA (wild-type Z-associated protein A fused to mCh) (natural protein, Escherichia coli, UniProt P0ADS2 1-109, looked up, Z-associated protein A (ZapA), Escherichia coli; also called mCh–ZapA^WT; ZapA^WT; source: E. coli TB28 ∆zapA or WT strain, expressed from plasmid pSAV077, in living cells; not shown: mCh, N-terminal, kept) MSAQPVDIQIFGRSLRVNCPPDQRDALNQAADDLNQRLQDLKERTRVTNTEQLVFIAALNISYELAQEKAKTRDYAASMEQRIRMLQQTIEQALLEQGRITEKTNQNFE | 4 | < 1.7 |
| mCh–ZapA^I83E (in vitro non-tetramerizing ZapA mutant fused to mCh) (natural protein, Escherichia coli, UniProt P0ADS2 1-109, looked up, Z-associated protein A (ZapA), Escherichia coli, with I83E; made by exchanging zapA in pSAV077 with zapA^I83E from pRP071; also called pNM137; pTHV–mCh–ZapA^I83E; source: E. coli TB28 ∆zapA or WT strain, expressed from plasmid pNM137, in living cells; not shown: mCh, N-terminal, kept) MSAQPVDIQIFGRSLRVNCPPDQRDALNQAADDLNQRLQDLKERTRVTNTEQLVFIAALNISYELAQEKAKTRDYAASMEQRERMLQQTIEQALLEQGRITEKTNQNFE | – | < 1.7 |
| mCh–PBP1b (PBP1b fused to mCh) (natural protein, UniProt P02919 1-844, looked up, PBP1b; Negative control in the FRET assay; also called pBB008; pTHV–mCh–PBP1b; source: E. coli TB28 ∆zapA, expressed from plasmid pBB008, in living cells; not shown: mCh, N-terminal, kept) MAGNDREPIGRKGKPTRPVKQKVSRRRYEDDDDYDDYDDYEDEEPMPRKGKGKGKGRKPRGKRGWLWLLLKLAIVFAVLIAIYGVYLDQKIRSRIDGKVWQLPAAVYGRMVNLEPDMTISKNEMVKLLEATQYRQVSKMTRPGEFTVQANSIEMIRRPFDFPDSKEGQVRARLTFDGDHLATIVNMENNRQFGFFRLDPRLITMISSPNGEQRLFVPRSGFPDLLVDTLLATEDRHFYEHDGISLYSIGRAVLANLTAGRTVQGASTLTQQLVKNLFLSSERSYWRKANEAYMALIMDARYSKDRILELYMNEVYLGQSGDNEIRGFPLASLYYFGRPVEELSLDQQALLVGMVKGASIYNPWRNPKLALERRNLVLRLLQQQQIIDQELYDMLSARPLGVQPRGGVISPQPAFMQLVRQELQAKLGDKVKDLSGVKIFTTFDSVAQDAAEKAAVEGIPALKKQRKLSDLETAIVVVDRFSGEVRAMVGGSEPQFAGYNRAMQARRSIGSLAKPATYLTALSQPKIYRLNTWIADAPIALRQPNGQVWSPQNDDRRYSESGRVMLVDALTRSMNVPTVNLGMALGLPAVTETWIKLGVPKDQLHPVPAMLLGALNLTPIEVAQAFQTIASGGNRAPLSALRSVIAEDGKVLYQSFPQAERAVPAQAAYLTLWTMQQVVQRGTGRQLGAKYPNLHLAGKTGTTNNNVDTWFAGIDGSTVTITWVGRDNNQPTKLYGASGAMSIYQRYLANQTPTPLNLVPPEDIADMGVDYDGNFVCSGGMRILPVWTSDPQSLCQQSEMQQQPSGNPFDQSSQPQQQPQQQPAQQEQKDSDGVAGWIKDMFGSN | – | < 1.7 |
